Experimental data: the supplement of paper PMC10567573
± gives the standard deviation.

Experiment: protein stability index of a GFP-peptide fusion (GPS, HEK-293T) (PSI 1-6); higher = more stable
[1] = treatment: DMSO, c terminus: a fixed tail appended
[2] = treatment: MLN4924 1 uM, 8 h, c terminus: a fixed tail appended
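Also: 24-mer peptide tiles fused after GFP, lentivirally expressed, FACS-sorted into six equal bins by GFP/DsRed ratio, decoded by Illumina sequencing, PSI is the read-weighted mean bin number.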

Sequence | protein stability index [1] | protein stability index [2] | protein stability index (treatment: DMSO, c terminus: native) | protein stability index (treatment: MLN4924 1 uM, 8 h, c terminus: native)
EPPTEAASREENQAGPEATTSDPQ [PALM] | 5.61 ± 0.26 | 5.49 ± 0.3 |  | 
EQARAYAEKNCMTFFEVSPLCNFN [RAB40C] | 2.49 ± 0.31 | 2.38 ± 0.15 |  | 
ERAHKGEKPYGCSECGKAFPRKSE [ZNF649] | 4.23 ± 0.12 | 4.7 ± 0.48 |  | 
ERAPTATFHDSKHNIVHVHFDATR [WDFY2] | 3.34 ± 0.17 | 3.33 ± 0.29 |  | 
EREVRAKNGRVDSEDRRSRHCPYL [USP39] | 4.39 ± 0.24 | 4.5 ± 0.32 |  | 
ERFHGVGILGFNSAEWFITAVGAI [ACSBG2] | 2.75 ± 1.1 | 2.78 ± 1.3 |  | 
ERRELAVEQGERALERRRRALQEE [ZBED3] | 5.34 ± 0.17 | 5.39 ± 0.31 |  | 
ERSLRLQARYHDTPYKPPAGRAAA [MYORG] | 3.55 ± 0.31 | 4.15 ± 0.11 |  | 
ESENASLREKLRLREAEIARIRDE [LRRC45] | 5.26 ± 0.17 | 5.11 ± 0.11 |  | 
ESLKEELLSLKQNHEQEVNTLRCQ [KRT33B] | 4.91 ± 0.099 | 4.78 ± 0.24 |  | 
ESLMKDGDKNNDGRIDFDEFLKMM [TNNC2] | 4.53 ± 0.1 | 4.55 ± 0.31 |  | 
ESQVFSEKLATDTSTFEATSEGTL [ZNF232] | 5.29 ± 0.13 | 5.15 ± 0.13 |  | 
ETIPLTAEKLCIYTDNSIRPEELL [CCND1] | 3.59 ± 0.41 | 3.94 ± 0.34 |  | 
ETKLHLLRQEMVNLRATDVRLMRQ [LURAP1L] | 2.96 ± 0.34 | 3.17 ± 0.16 |  | 
ETSYQQREERLRRENEELSARYLS [FBF1] | 4.79 ± 0.2 | 4.89 ± 0.17 |  | 
EVASNTEMIQTSKTEITDLRRTMQ [KRT15] | 3.89 ± 0.21 | 4.27 ± 0.32 |  | 
EVFIEWGISAKVFGATTNYGKDIV [ZBED1] | 2.35 ± 0.64 | 2.44 ± 0.3 |  | 
EVHFLHEESILERVQQHIESKLLG [MLH1] | 2.98 ± 0.19 | 3.19 ± 0.24 |  | 
EVTASQEARGLRLSDLEDLEEEEE [IRX6] | 5.73 ± 0.34 | 5.64 ± 0.14 |  | 
EYFFDRNRPSFDAILYYYQSGGRL [KCNA1] | 2.52 ± 0.43 | 2.18 ± 0.29 |  | 
EYQLNDSAAYYLNDLDRIAQPNYI [GNAI1] | 2.61 ± 0.15 | 2.79 ± 0.49 |  | 
FDSPSLCSSSTRSVLKRPERSQEE [CDC25A] | 5.04 ± 0.31 | 5.12 ± 0.16 |  | 
FEYPESSGPARVIAIVSVMVILIS [KCNA1] | 2.82 ± 0.47 | 2.87 ± 0.48 |  | 

Sequence | protein stability index [1] | protein stability index [2] | protein stability index (treatment: DMSO, c terminus: native) | protein stability index (treatment: MLN4924 1 uM, 8 h, c terminus: native)
FFIESCGAQVPVEGSRRETSITV |  |  | 2.56 ± 0.97 | 2.29 ± 0.36
FGGVDGLLAGGEKATMQNLNDRLA [KRT17] | 3.5 ± 0.32 | 3.69 ± 0.26 |  | 
FIENNVSKLSLLLNDISRKSEGLS [TRIP13] | 2.39 ± 0.35 | 2.33 ± 0.26 |  | 
FKKGNRYIRCQKEVGKSFERHKLK [SMG5] | 2.75 ± 0.23 | 2.85 ± 0.14 |  | 
FKKTAYELLDEKLLARGTMQPFNY [FEM1A] | 2.37 ± 0.46 | 2.61 ± 0.17 |  | 
FKTIEELRDKIMATTIDNSRVILE [KRT15] | 2.54 ± 0.28 | 2.65 ± 0.26 |  | 
FLDERLYCESHAKARVKPPEGYDV [PDLIM4] | 2.78 ± 0.8 | 3.23 ± 0.93 |  | 
FLESQGIELNPPEKMALDPYTELR [EFHC1] | 3.79 ± 0.41 | 3.89 ± 0.35 |  | 
FLFPIDISLVKREHDFLDRDAIEA [DLC1] | 2.66 ± 0.57 | 2.72 ± 0.31 |  | 
FLQNAKTLLKKISEASKAFQMEKI [TRIM55] | 3 ± 0.65 | 2.77 ± 0.42 |  | 
FLRSLRQMKQKVQSLYQEVFGRLR [NFE2L1] | 2.41 ± 0.59 | 1.7 ± 0.43 |  | 
FLSFSMYQSFVQFLQYYYQSGCLY [TMEM120A] | 3.02 ± 0.39 | 3.54 ± 0.45 |  | 
FMEMNQKLFDDCTQQFKAEKLKEK [PPP2R5C] | 4.26 ± 0.31 | 4.43 ± 0.28 |  | 
FNGDFVDRGKDSVEILMILFAFML [PPEF2] | 2.62 ± 0.54 | 2.15 ± 0.27 |  | 
FPDGDDEFDSPHEDIVFETDHILE [STX11] | 5.19 ± 0.25 | 5.29 ± 0.16 |  | 
FQAKKIPIVSSLADPLDTPPDSKE [PDZK1] | 4.16 ± 0.3 | 4.39 ± 0.63 |  | 
FQCNQCGASFTQKGNLLRHIKLHS [IKZF1] | 4.56 ± 0.16 | 4.4 ± 0.76 |  | 
FRGDDGIFDDNFIEERKQGLEQFI [SNX3] | 3.28 ± 0.18 | 3.76 ± 0.66 |  | 
FSEIISSISDVKFSHSGRYIMTRD [PPP2R2B] | 2.52 ± 0.28 | 2.53 ± 0.29 |  | 
FSGWISALVVPKGNTAVSVLMLLV [SCAMP3] | 2.87 ± 0.39 | 2.73 ± 0.46 |  | 
FSHTLVSLSLFGCTNIFYEEENPG [ZER1] | 2.65 ± 0.12 | 2.29 ± 0.029 |  | 
FSTSKWNHLLHHFVIGHLKGAPAS [FADS1] | 2.65 ± 0.67 | 2.17 ± 0.38 |  | 
FSVLEGEKNNHRAKDLRAPPEQGK [SOAT1] | 5.08 ± 0.26 | 4.92 ± 0.18 |  | 

Sequence | protein stability index [1] | protein stability index [2] | protein stability index (treatment: DMSO, c terminus: native) | protein stability index (treatment: MLN4924 1 uM, 8 h, c terminus: native)
FTFEGFSRLRFLNLGRMIDWVPVE [ZER1] | 2.76 ± 0.63 | 2.81 ± 0.43 |  | 
FTTSILRHWCMKHDELLAEHIKSL [INTS3] | 2.22 ± 0.2 | 2.17 ± 0.18 |  | 
GAVAPPVSGDLTKEDIDLIDILWR [NFE2L1] | 3.16 ± 0.17 | 3.67 ± 0.53 |  | 
GAVLALVAIFIMSLNKRHSSGDGN [MFSD9] | 3 ± 0.21 | 3.43 ± 0.59 |  | 
GAYDFPSPEWDTVTPEAKNLINQM [CAMK2B] | 3.76 ± 0.25 | 3.85 ± 0.25 |  | 
GCLAEAVSVIQSIPIFNETGRFSF [HACD3] | 2.91 ± 0.66 | 2.6 ± 0.77 |  | 
GDTPIRKKEELLFDDGDDIMATLG [FBF1] | 4.35 ± 0.18 | 4.47 ± 0.29 |  | 
GEAQPGLPQEDPSTSQGCAQPQGA [FEM1A] | 5.36 ± 0.21 | 5.51 ± 0.13 |  | 
GEQEHSQQKEEEEEMAVVPQGLFR [CHGA] | 5.45 ± 0.43 | 5.55 ± 0.28 |  | 
GFGVLRLDADAAQRVVYLEGCGPP [TSPAN10] | 2.88 ± 0.33 | 2.65 ± 0.13 |  | 
GGKKDKARYIDTHNRVSKEDEDIY [PLK2] | 4.37 ± 0.27 | 4.73 ± 0.4 |  | 
GGLEHVPSSSSIHNGDMEKILLDA [BNIP3L] | 4.85 ± 0.23 | 4.68 ± 0.61 |  | 
GGLFVGKEGPMIHSGSVVGAGLPQ [CLCN6] | 3.39 ± 0.16 | 3.46 ± 0.44 |  | 
GGLNTETNEKALEAVFGKYGRIVE [RBMX] | 3.59 ± 0.26 | 3.22 ± 0.47 |  | 
GGMMPPGPGIPPLMPGMPPGMPPP [ZNF207] | 3.89 ± 0.43 | 4.09 ± 0.15 |  | 
GGPGRQTTSPNVLWPTPGHLSPLV [ESR2] | 2.97 ± 0.22 | 3.15 ± 0.048 |  | 
GGQCCRRQDSPSPDFYKQSSPNLQ [PCDHGC5] | 3.77 ± 0.33 | 3.78 ± 0.23 |  | 
GGSGPAGLRASTSDGILRGNGTGY [RHOBTB2] | 4.31 ± 0.27 | 4.24 ± 0.39 |  | 
GIELMEVDPIGHVYIFATCLGLSY [MAGEA6] | 3.02 ± 0.66 | 2.92 ± 0.41 |  | 
GKEQSRRDDLEALGHMFMYFLRGS [CSNK1G3] | 2.38 ± 0.34 | 2.29 ± 0.45 |  | 
GKLKCDICGIICIGPNVLMVHKRS [IKZF1] | 2.91 ± 1.6 | 2.26 ± 0.75 |  | 
GKNLYTNEYVAIKLEPIKSRAPQL [CSNK1G1] | 2.35 ± 0.032 | 2.58 ± 0.13 |  | 
GKSPVNMVTVAMVAGQCEFAHILH [ZNF649] | 2.63 ± 0.63 | 2.34 ± 0.62 |  | 

Sequence | protein stability index [1] | protein stability index [2] | protein stability index (treatment: DMSO, c terminus: native) | protein stability index (treatment: MLN4924 1 uM, 8 h, c terminus: native)
GLHLTDPSQRLVQNCLWTLRNLSD [CTNNB1] | 2.29 ± 0.31 | 2.45 ± 0.27 |  | 
GLLALAIGLWGLAVKGSLGSDLGG [TSPAN10] | 4.49 ± 0.53 | 3.4 ± 0.37 |  | 
GMDFHRFYFENALSKSNKPIHTII [CAMK2D] | 2.94 ± 1.8 | 2.06 ± 1.1 |  | 
GNFDWVGNDFTQNAGTGLVINQAD [PLD5] | 4.7 ± 0.69 | 4.47 ± 0.27 |  | 
GNQLISNNIKFKKSSILTRAGEQR [CLCN6] | 3.78 ± 0.13 | 4.06 ± 0.44 |  | 
GQQDLFRVLKAYTLYRPEEGYCQA [TBC1D10A] | 2.03 ± 0.37 | 2.16 ± 0.31 |  | 
GQQDQVKLHDFFSYLMDHFIPSSH [PPEF2] | 2.81 ± 0.57 | 2.89 ± 0.71 |  | 
GQRGAQGAGRRRRAGGPPRPMSEP [SMAD6] | 4.96 ± 0.21 | 5.08 ± 0.42 |  | 
GRDELGGGRRPGTSPALLQGTAEE [CDKN1A] | 5.4 ± 0.34 | 5.41 ± 0.24 |  | 
GSANDYKDTLGKGSSLSAPSKKTS [KRT71] | 5.33 ± 0.22 | 5.3 ± 0.22 |  | 
GSDYVNANYIDGYRKQNAYIATQG [PTPRD] | 3.51 ± 1.2 | 3.46 ± 0.28 |  | 
GSINLLESPQLATLAEDVTAALAK [MAP2] | 4.12 ± 0.066 | 4.05 ± 0.27 |  | 
GSLCAIAGVLTIALPVPVIVSNFN [KCNA4] | 3.33 ± 0.42 | 3.13 ± 0.36 |  | 
GSPVNQQPKKNNVMARTRLVVPNK [FAM219A] | 4.17 ± 0.1 | 4.33 ± 0.31 |  | 
GSTMLIEAAKGGHTSVVCYLLDYP [ANKRD17] | 2.59 ± 0.38 | 2.55 ± 0.56 |  | 
GTTPQISPSTLIGSLRTLELGSES [HDAC6] | 4.52 ± 0.27 |  |  | 
GVAGGLNRNQGLNRLMLAVRDMMA [TCF25] | 3.12 ± 0.38 | 3.02 ± 0.36 |  | 
GVCIRRCTVLRDARIRSHSWLESC [GMPPB] | 2.31 ± 0.35 | 2.15 ± 0.12 |  | 
GVKRKADTTTPTTSAITASRSESP [BRD3] | 5.22 ± 0.15 | 5.19 ± 0.16 |  | 
GVLHKHQRALHKYSLMKRQMMSAT [SNX8] | 2.4 ± 0.18 | 2.58 ± 0.24 |  | 
